Earlier results, collected in article PMC3361719.

Biological target: p67phox SH3 (Homo sapiens) (UniProt P19878)
UniProt P19878, sequence (P19878 457-516): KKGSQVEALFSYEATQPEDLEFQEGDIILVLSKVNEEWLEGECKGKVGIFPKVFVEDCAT

Substance: p47phox PRR and 368-390 (from UniProt P14598)
- Kd: 20 nM
